Test results taken from US20120207760A1.

Assays:
Settings in all cases: remark: other sources report otherwise
[1] = target: T1, recombinant homotrimeric HA, A/California/4/09 H1N1 (Influenza A virus A/California/4/09 (H1N1)); test: trimeric HA microarray, transfection set 5
[2] = target: T2, recombinant homotrimeric HA, A/Indonesia/5/05 H5N1 (Influenza A virus A/Indonesia/5/05 (H5N1)); test: trimeric HA microarray, transfection set 5
[3] = target: T3, recombinant homotrimeric HA, A/Japan/305/57 H2N2 (Influenza A virus A/Japan/305/57 (H2N2)); test: trimeric HA microarray, transfection set 5
[4] = target: T4, recombinant homotrimeric HA, A/Solomon Islands/3/06 H1N1 (Influenza A virus A/Solomon Islands/3/06 (H1N1)); test: trimeric HA microarray, transfection set 5
[5] = target: T5, recombinant homotrimeric HA, A/South Carolina/1/18 H1N1 (Influenza A virus A/South Carolina/1/18 (H1N1)); test: trimeric HA microarray, transfection set 5
[6] = target: T6, recombinant homotrimeric HA, A/Wisconsin/67/05 H3N2 (Influenza A virus A/Wisconsin/67/05 (H3N2)); test: trimeric HA microarray, transfection set 5
[7] = target: T7, recombinant homotrimeric HA, A/swine/Ontario/01911-2/99 H4N6 (Influenza A virus A/swine/Ontario/01911-2/99 (H4N6)); test: trimeric HA microarray, transfection set 5
[8] = target: recombinant soluble homotrimeric HA of A/swine/Ontario/01911-2/99 (H4N6) (Influenza A virus A/swine/Ontario/01911-2/99 (H4N6)); test: microarray, BCC supernatant IgG, trimeric HA
[9] = target: T1, recombinant homotrimeric HA, …; test: trimeric HA microarray, transfection set 4
[10] = target: recombinant homotrimeric HA, A/Egypt/3300-NAMRU3/08 H5N1 (Influenza A virus A/Egypt/3300-NAMRU3/08 (H5N1)); test: trimeric HA microarray, transfection set 4
[11] = target: recombinant homotrimeric HA, A/Hong Kong/1073/99 H9N2 (Influenza A virus A/Hong Kong/1073/99 (H9N2)); test: trimeric HA microarray, transfection set 4
[12] = target: recombinant homotrimeric HA, A/Hong Kong/2108/03 H9N2 (Influenza A virus A/Hong Kong/2108/03 (H9N2)); test: trimeric HA microarray, transfection set 4
[13] = target: T2, recombinant homotrimeric HA, …; test: trimeric HA microarray, transfection set 4
[14] = target: T3, recombinant homotrimeric HA, …; test: trimeric HA microarray, transfection set 4
[15] = target: T4, recombinant homotrimeric HA, A/Solomon …; test: trimeric HA microarray, transfection set 4
[16] = target: T5, recombinant homotrimeric HA, A/South …; test: trimeric HA microarray, transfection set 4
[17] = target: recombinant homotrimeric HA, A/Vietnam/1203/04 H5N1 (Influenza A virus A/Vietnam/1203/04 (H5N1)); test: trimeric HA microarray, transfection set 4
[18] = target: T6, recombinant homotrimeric HA, …; test: trimeric HA microarray, transfection set 4
[19] = target: recombinant homotrimeric HA, A/chicken/Vietnam/NCVD-016/08 H5N1 (Influenza A virus A/chicken/Vietnam/NCVD-016/08 (H5N1)); test: trimeric HA microarray, transfection set 4
[20] = target: recombinant homotrimeric HA, A/common magpie/Hong Kong/5052/07 H5N1 (Influenza A virus A/common magpie/Hong Kong/5052/07 (H5N1)); test: trimeric HA microarray, transfection set 4
[21] = target: recombinant homotrimeric HA, A/duck/Yangzhou/02/05 H8N4 (Influenza A virus A/duck/Yangzhou/02/2005 (H8N4)); test: trimeric HA microarray, transfection set 4
[22] = target: recombinant homotrimeric HA, A/northern shoveler/California/HKWF115/07 (Influenza A virus A/northern shoveler/California/HKWF115/2007 (H6N1)); test: trimeric HA microarray, transfection set 4
[23] = target: recombinant soluble homotrimeric HA of A/duck/Yangzhou/02/05 (H8N4) (Influenza A virus A/duck/Yangzhou/02/2005 (H8N4)); test: microarray, BCC supernatant IgG, trimeric HA
[24] = target: recombinant soluble homotrimeric HA of A/Egypt/3300-NAMRU3/08 - H5N1 (Influenza A virus A/Egypt/3300-NAMRU3/2008 (H5N1)); test: micro-array; captured IgG, V5-tagged trimeric HA
[25] = target: T7, recombinant homotrimeric HA, …; test: trimeric HA microarray, transfection set 4
[26] = target: recombinant soluble homotrimeric HA of A/Hong Kong/1073/99 - H9N2 (Influenza A virus A/Hong Kong/1073/99 (H9N2)); test: micro-array; captured IgG, V5-tagged trimeric HA

Row | Binder | Trimeric HA Binding RLU [3] [RLU] | Trimeric HA Binding RLU [4] [RLU] | Trimeric HA Binding RLU [5] [RLU] | Trimeric HA Binding RLU [6] [RLU] | Trimeric HA Binding RLU [7] [RLU] | Trimeric HA Binding RLU [9] [RLU] | Trimeric HA Binding RLU [14] [RLU] | Trimeric HA Binding RLU [16] [RLU] | Trimeric HA Binding RLU [17] [RLU] | Trimeric HA Binding RLU [18] [RLU] | also measured
1 | TCN-555 (5246_L16) (antibody, V domains shown) VH: QVQLVQSGAEVKRPGSSVKVSCTASGGIFRKNAISWVRQAPGQGLEWMGGIIAVFNTANYAQKFQNRVKITADESGNTAYMELSSLTSDDTAVYYCASHPKYFYGSGSYPDFWGQGTLVTVSS VL: QSALTQPRSVSGSPGQSITISCTGGSSDIGASNSVSWYQQHPGKAPKLVIFDVTERPSGVPHRFSGSKSGNTASLTVSGLQPDDEADYFCCAYGGKYLVVFGGGTKVTVL | 16700 | 44600 | 48000 | 14700 | 4520 |  |  |  |  |  | Trimeric HA Binding RLU [1]: 20200 RLU; Trimeric HA Binding RLU [2]: 33900 RLU; Trimeric HA Binding: RLU [8]: 1950 RLU
2 | TCN-535 (5246_P19) (antibody, V domains shown) VH: QVQLVQSGSEVKKPGTSVKVSCTASGSVFTNYGISWVRQAPGQGLEWMGGIIPLFGAAKYAQKFQGRVTITADESTKTVYMELSRLTSKDTAIYFCAKAPRVYEYYFDQWGQGTPVTVSS VL: EIVLTQSPGTLSLSPGERATLSCRASQSVSSSQLAWYQQKPGQAPRLIIYGASTRATGIPDRFSGSGSGTDFTLTIGRLEPEDFAVFFCQQYSTSPPTFGQGTKVDFK |  |  |  |  |  | 25200 | 21500 | 22400 | 25200 | 4450 | Trimeric HA Binding RLU [10]: 25300 RLU; Trimeric HA Binding RLU [11]: 21200 RLU; Trimeric HA Binding RLU [12]: 18 RLU; Trimeric HA Binding RLU [13]: 18200 RLU; Trimeric HA Binding RLU [15]: 836 RLU; Trimeric HA Binding RLU [19]: 20900 RLU; Trimeric HA Binding RLU [20]: 477 RLU; Trimeric HA Binding RLU [21]: 428 RLU; Trimeric HA Binding RLU [22]: 18100 RLU
3 | TCN-539 (5056_A08) (antibody, V domains shown) VH: QVQLVESGGGVVQPGRSLRLSCAASEITFITYAMHWVRQAPGKGLEWVALISDDGSNKFYADSVKGRFTISRDNSKNTLYLQMNSLRAEDTAAYYCAREGVYFDSGTYRGYFDYWGQETLVTVSS VL: EIVLTQSPATLSLSPGERATLSCRASQSVSSYLAWYQQKPGQAPRLLIYDASNRATGIPARFSGSGSGTDFTLTISSLEPEDFAVYYCQQRSHWPPITFGQGTRLEIK | 2560 | 871 | 5330 | 58800 | 6510 |  |  |  |  |  | Trimeric HA Binding: RLU [23]: 1490 RLU; Trimeric HA Binding: RLU [24]: 24300 RLU
4 | TCN-536 (5095_N01) (antibody, V domains shown) VH: QVQLQQWGAGLLKPSETLSLTCAVYGGSFSVSGYYWSWIRQPPGRGLEWIGEISHGGSTNYNPSLKSRVTISVDTTKNQFSLRLSSVTAADTAVYYCARGTDPDTEVYCRVGNCAAFDYWGQGSLVTVSS VL: EIILAQSPGTLSLSPGERATLSCRASQFVSTRSLAWYQQRPGQAPRLLIYGASSRATGIPDRFSGSGSGTDFTLTISRLEPEDFAVYYCQHYGYSPRYAFGQGSKVEIK |  |  |  |  |  | 49 | 260 | 39 | 182 | 20600 | Trimeric HA Binding RLU [25]: 168 RLU; Trimeric HA Binding: RLU [26]: 115 RLU
